The values below come from patent publication US20030026803A1 (published 2003).

Assay [1] addresses T1, hSIRP-Fc (extracellular region of human SIRPα fused to the Fc region of human IgG) (human, UniProt P78324 31-373).
T1 construct: extracellular domain; also called human SIRP-Fc; dimeric hSIRP-Fc; not shown: human IgG Fc from vector pIg PLUS (R&D Systems)
Nature of the assay: BIAcore equilibrium binding at 37° C, non linear curve fitting of the Langmuir isotherm; hSIRP-Fc immobilised (6525 RU), control subtracted. As to the method: (§1) FIG. 5. Affinity and dissociation rate of soluble human CD47-CD4d3+4 binding to human SIRP-Fc. (A) Soluble monomeric hCD47-CD4d3+4 was injected at the indicated concentrations in 1 μM through flowcells immobilised hSIRP-Fc (6525 RU) (solid line), or as a negative control CTLA-4-Fc (6290 RU) (dotted line) at 37° C. (B) the difference between the response between the response at equilibrium in the hSIRP-Fc flowcell and the control flow cell is plotted against the hCD47-CD4d3+4 concentration. A kd=8.5 μM and maximal binding of 1400 RU were calculated by non linear curve fitting of the Langmuir isotherm (line) to data (circles) from A with negative control subtracted. […] (C) Soluble hCD47 (18.3 μM) was injected over immobilised hSIRP-Fc immobilised at high (6500 RU) (filled circles) and low (3000) levels (filled up triangles), and hCTLA-4-Fc (6290 RU) (filled down triangles). Values for koff=1.6 s⁻¹ for hSIRP-Fc high, 2.1 s⁻¹ hSIRP-Fc low and 7.0 s⁻¹ for hCTLA-4-Fc were calculated by exponential decay curve fitting (line) to dissociation data (symbols).
(§2) BIAcore analysis was carried out using a BIAcore™ 2000 biosensor instrument (Biacore AB) as previously described (Brown et al., (1998) J. Exp. Med. 188:2083-90, van der Merwe, et al., (1994) Biochemistry 33:101489-60) using CM5 research grade chips. […]

Assay [2] has as its target T1, hSIRP-Fc (extracellular region of human …). Nature of the assay: BIAcore, 37° C; apparent rate constant, hSIRP-Fc at the higher level. On the procedure: (§3) (C) Soluble hCD47 (18.3 μM) was injected over immobilised hSIRP-Fc immobilised at high (6500 RU) (filled circles) and low (3000) levels (filled up triangles), and hCTLA-4-Fc (6290 RU) (filled down triangles). Values for koff=1.6 s⁻¹ for hSIRP-Fc high, 2.1 s⁻¹ hSIRP-Fc low and 7.0 s⁻¹ for hCTLA-4-Fc were calculated by exponential decay curve fitting (line) to dissociation data (symbols).
(§4) BIAcore analysis was carried out using a BIAcore™ 2000 biosensor instrument (Biacore AB) as previously described (Brown et al., (1998) J. Exp. Med. 188:2083-90, van der Merwe, et al., (1994) Biochemistry 33:101489-60) using CM5 research grade chips. […] For equilibrium binding increasing and decreasing concentrations of monomeric hCD47-CD4d3+4 were passed over hSIRP-Fc (6500 RU). For kinetic measurements hCD47-CD4d3+4 (18.30 μM) was passed over hSIRP-Fc immobilised at 6500 RU and 3000 RU and a control, CTLA4-Fc (6300 RU). CD47mAb blocking and V-SIRP-CD4d3+4 binding experiments were carried out at 10 and 5 μl/min respectively at 25° C.
(§5) To measure the affinity of the interaction hSIRP-Fc was directly immobilised and monomeric hCD47-CD4d3+4 passed over it. As shown in FIG. 5A hCD47-CD4d3+4 bound specifically to hSIRP-Fc in a dose dependent manner. […] The apparent rate constants were calculated as koff=1.3 s⁻¹ for the higher level of hSIRP-Fc and koff=2.1 s⁻¹ for the lower level (FIG. 5C). […]

Assay [3] shares this target. Nature of the assay: BIAcore, 37° C; 18.3 µM hCD47-CD4d3+4 over hSIRP-Fc at 6500 RU, exponential decay fitting. As to the method:
as §1, §2

Assay [4] shares this target. Briefly: BIAcore, 37° C; 18.3 µM hCD47-CD4d3+4 over hSIRP-Fc at 3000 RU, exponential decay fitting. As to the method:
as §1, §2

The target is the same in assay [5]. Briefly: BIAcore equilibrium binding at 37° C, Scatchard analysis. On the procedure: as §3, §4, §5
Assay [6] has the same target. Briefly: BIAcore, 37° C; lower bound because of rebinding. On the procedure: as §3, §4, §5
The target of assay [7] is T2, soluble rat CD4 (rat, UniProt P05540 28-394, limits assumed).
T2 sequence (looked up): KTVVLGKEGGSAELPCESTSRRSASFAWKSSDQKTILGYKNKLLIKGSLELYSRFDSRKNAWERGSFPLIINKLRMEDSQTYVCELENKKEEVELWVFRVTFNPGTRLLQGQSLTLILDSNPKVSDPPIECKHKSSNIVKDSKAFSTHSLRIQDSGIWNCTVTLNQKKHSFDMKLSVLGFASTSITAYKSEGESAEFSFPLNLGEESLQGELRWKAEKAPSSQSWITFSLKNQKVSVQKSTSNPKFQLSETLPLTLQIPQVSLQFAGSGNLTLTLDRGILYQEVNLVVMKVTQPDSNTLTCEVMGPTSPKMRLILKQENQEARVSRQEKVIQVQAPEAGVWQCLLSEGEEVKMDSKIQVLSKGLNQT
Briefly: BIAcore, 25° C; soluble rat CD4 injected over V-SIRP-CD4d3+4 flowcell and control flowcell. On the procedure:
FIG. 6. The NH2-terminal V domain of SIRP binds CD47. Soluble rat CD4 and hCD47-CD4d3+4 were injected into flowcells with immobilised V-SIRP-Cd4d3+4 (solid line) or control rat CD4 (dashed line).
as §4
To localise the CD47 binding site on SIRP a construct containing only the NH₂-terminal V-like domain of hSIRP in frame with CD4d3+4 was made. V-SIRP-CD4d3+4 was immobilised in one flowcell via a CD4 mAb (OX68). The free OX68 in this flowcell and all the OX68 in the control flowcell was blocked with soluble rat CD4. Blocking was verified by repeating the injection of soluble rat CD4 (FIG. 6). Soluble hCD47-CD4d3+4 was then injected over both the flowcells. […]

B1: hCD47-CD4d3+4 (single extracellular IgSF domain of human CD47 fused to rat CD4 domains 3+4) (ligand, human;rat, UniProt Q08722 19-136, looked up)
chain: QLLFNKTKSVEFTFCNDTVVIPCFVTNMEAQNTTEVYVKWKFKGRDIYTFDGALNKSTVPTDFSSAKIEVSQLLKGDASLKMDKSDAVSHTGNYTCEVTELTREGETIIELKYRVVSWSTSITAYKSEGESAEFSFPLNLGEESLQGELRWKAEKAPSSQSWITFSLKNQKVSVQKSTSNPKFQLSETLPLTLQIPQVSLQFAGSGNLTLTLDRGILYQEVNLVVMKVTQPDSNTLTCEVMGPTSPKMRLILKQENQEARVSRQEKVIQVQAPEAGVWQCLLSEGEEVKMDSKIQVLSKGLN
notes: extracellular domain;domain: CD4 domains 3+4; Used as a monomer in solution, or captured via OX68; also called soluble human CD47-CD4d3+4; soluble hCD47; not shown: biotinylation peptide of the CD4d3+4-biotin vector
In the case of B1, the Kd in assay [1] came out at 8.5 µM; in assay [5] it was 7.6 µM. Besides, the koff is 1.3 s⁻¹ in assay [2], 1.6 s⁻¹ in assay [3], 2.1 s⁻¹ in assay [4] and not below 2.1 s⁻¹ in assay [6].

B2: V-SIRP-CD4d3+4 (NH2-terminal V-like domain of hSIRP in frame with rat CD4 domains 3+4) (receptor, human;rat, UniProt P78324 31-148, looked up)
chain: EEELQVIQPDKSVLVAAGETATLRCTATSLIPVGPIQWFRGAGPGRELIYNQKEGHFPRVTTVSDLTKRNNMDFSIRIGNITPADAGTYYCVKFRKGSPDDVEFKSGAGTELSVRAKPSTSITAYKSEGESAEFSFPLNLGEESLQGELRWKAEKAPSSQSWITFSLKNQKVSVQKSTSNPKFQLSETLPLTLQIPQVSLQFAGSGNLTLTLDRGILYQEVNLVVMKVTQPDSNTLTCEVMGPTSPKMRLILKQENQEARVSRQEKVIQVQAPEAGVWQCLLSEGEEVKMDSKIQVLSKGLN
notes: domain: NH2-terminal V-like domain;domain: CD4 domains 3+4; Captured on the chip via OX68; also called single SIRP V domain CD4d3+4 fusion protein
For the molecule B2, the binding result in assay [7] was “no binding”.
